# Measurements from IntAct's records for PubMed 16286470.
# B1: Dual specificity protein phosphatase 1 (Homo sapiens), P28562 (parent)
# chain: MVMEVGTLDAGGLRALLGERAAQCLLLDCRSFFAFNAGHIAGSVNVRFSTIVRRRAKGAMGLEHIVPNAELRGRLLAGAYHAVVLLDERSAALDGAKRDGTLALAAGALCREARAAQVFFLKGGYEAFSASCPELCSKQSTPMGLSLPLSTSVPDSAESGCSSCSTPLYDQGGPVEILPFLYLGSAYHASRKDMLDALGITALINVSANCPNHFEGHYQYKSIPVEDNHKADISSWFNEAIDFIDSIKNAGGRVFVHCQAGISRSATICLAYLMRTNRVKLDEAFEFVKQRRSIISPNFSFMGQLLQFESQVLAPHCSAEAGSPAMAVLDRGTSTTTVFNFPVSIPVHSTNSALSYLQSPITTSPSC
# Variants of: B1
# Settings: with ubb_human UBB
row,Variant,effect of a mutation on the interaction
1,MVMEVGTLDAGGLRALLGERAAQCLLLDCRSFFAFNAGHIAGSVNVRFSTIVRRRAKGAMGLEHIVPNAELRGRLLAGAYHAVVLLDERSAALDGAKRDGTLALAAGALCREARAAQVFFLKGGYEAFSASCPELCSKQSTPMGLSLPLSTSVPDSAESGCSSCSTPLYDQGGPVEILPFLYLGSAYHASRKDMLDALGITALINVSANCPNHFEGHYQYKSIPVEDNHKADISSWFNEAIDFIDSIKNAGGRVFVHCQAGISRSATICLAYLMRTNRVKLDEAFEFVKQRRSIISPNFSFMGQLLQFESQVLAPHCSAEAGSPAMAVLDRGTSTTTVANAPVSIPVHSTNSALSYLQSPITTSPSC [F339A;F341A],decreasing interaction
2,MVMEVGTLDAGGLRALLGERAAQCLLLDCRSFFAFNAGHIAGSVNVRFSTIVRRRAKGAMGLEHIVPNAELRGRLLAGAYHAVVLLDERSAALDGAKRDGTLALAAGALCREARAAQVFFLKGGYEAFSASCPELCSKQSTPMGLSLPLSTSVPDSAESGCSSCSTPLYDQGGPVEILPFLYLGSAYHASRKDMLDALGITALINVSANCPNHFEGHYQYKSIPVEDNHKADISSWFNEAIDFIDSIKNAGGRVFVHCQAGISRSATICLAYLMRTNRVKLDEAFEFVKQRRSIIAPNFSFMGQLLQFESQVLAPHCSAEAGSPAMAVLDRGTSTTTVFNFPVSIPVHSTNSALSYLQSPITTSPSC [S296A],decreasing interaction
3,MVMEVGTLDAGGLRALLGERAAQCLLLDCRSFFAFNAGHIAGSVNVRFSTIVRRRAKGAMGLEHIVPNAELRGRLLAGAYHAVVLLDERSAALDGAKRDGTLALAAGALCREARAAQVFFLKGGYEAFSASCPELCSKQSTPMGLSLPLSTSVPDSAESGCSSCSTPLYDQGGPVEILPFLYLGSAYHASRKDMLDALGITALINVSANCPNHFEGHYQYKSIPVEDNHKADISSWFNEAIDFIDSIKNAGGRVFVHCQAGISRSATICLAYLMRTNRVKLDEAFEFVKQRRSIISPNFSFMGQLLQFESQVLAPHCSAEAGAPAMAVLDRGTSTTTVFNFPVSIPVHSTNSALSYLQSPITTSPSC [S323A],decreasing interaction

# Variants of: B1
# Settings: with skp2_human SKP2, Q13309
# skp2_human SKP2, Q13309, sequence (Q13309 whole entry): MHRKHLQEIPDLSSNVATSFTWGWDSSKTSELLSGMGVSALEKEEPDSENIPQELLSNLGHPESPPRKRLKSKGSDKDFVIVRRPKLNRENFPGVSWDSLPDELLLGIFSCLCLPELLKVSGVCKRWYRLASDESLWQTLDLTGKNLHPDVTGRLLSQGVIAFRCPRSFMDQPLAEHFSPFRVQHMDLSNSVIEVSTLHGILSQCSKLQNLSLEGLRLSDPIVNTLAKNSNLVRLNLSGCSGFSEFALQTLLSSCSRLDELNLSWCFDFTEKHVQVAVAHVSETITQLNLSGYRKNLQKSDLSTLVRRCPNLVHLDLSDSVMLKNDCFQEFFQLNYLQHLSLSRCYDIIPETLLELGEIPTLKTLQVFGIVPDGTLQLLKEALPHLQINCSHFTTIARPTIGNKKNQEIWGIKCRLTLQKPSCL
row,Variant,effect of a mutation on the interaction
1,MVMEVGTLDAGGLRALLGERAAQCLLLDCRSFFAFNAGHIAGSVNVRFSTIVRRRAKGAMGLEHIVPNAELRGRLLAGAYHAVVLLDERSAALDGAKRDGTLALAAGALCREARAAQVFFLKGGYEAFSASCPELCSKQSTPMGLSLPLSTSVPDSAESGCSSCSTPLYDQGGPVEILPFLYLGSAYHASRKDMLDALGITALINVSANCPNHFEGHYQYKSIPVEDNHKADISSWFNEAIDFIDSIKNAGGRVFVHCQAGISRSATICLAYLMRTNRVKLDEAFEFVKQRRSIIAPNFSFMGQLLQFESQVLAPHCSAEAGSPAMAVLDRGTSTTTVFNFPVSIPVHSTNSALSYLQSPITTSPSC [S296A],decreasing interaction
